Assays:
[1] = test system: MS2 coat protein; experiment: apparent KD of MS2 coat protein, switch OFF state (with FMN for OFF switches, without FMN for ON switches); designed switch direction (-1 OFF switch, 1 ON switch): -1; higher = weaker reporter binding; details: FMN input: 0 or 200 uM; Eterna round: R93 (includes R88 designs)
Outline: (§1)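 Normalised binding curves from single clusters were fitted, and the median fit for each design is given as apparent KD. The clusters held designed RNA switches transcribed on-chip from Illumina sequencing clusters. These were titrated with SNAP-549-labelled MS2 coat protein (twofold steps from 0.7 or 1.5 nM to 3 µM, 0.8–1.5 h to 10–20 min per step) in 100 mM Tris-HCl pH 7.5, 80 mM KCl, 4 mM MgCl2, without or with constant ligand.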

[2] = test system: MS2 coat protein; experiment: apparent KD of MS2 coat protein, switch ON state; designed switch direction (-1 OFF switch, 1 ON switch): -1; higher = weaker reporter binding; details: FMN input: 0 or 200 uM; Eterna round: R93 (includes R88 designs)
Outline: as §1

Sequence | apparent KD of MS2 coat protein [1] | apparent KD of MS2 coat protein [2]
AAAGGACAUGAGGAUCACCCAUGUGAGGAUAUGACGUAAAGAAAGAAAGAAGAAAUCGUCAGAAGGCACACCUA [Mat - Exclusion 1 - Eli mod - D69] | 36.5 nM | 35.4 nM
AAAGGACGAGGAUAUACAUGAGGAUCACCCAUGUAAAAAACAUAAUAAAAGAACUUAUGUAGAAGGCGUCCAAA [Meechl Ex3 2 R1 - Copy of Meechl Ex3 2 from Round 1] | 318 nM | 53.8 nM
AAAGGACGAGGAUAUACAUGAGGAUCACCCAUGUAAAAAACAUAAUAAAAGAACUUAUGUAGAAGGCGUCCAAA [Meechl Ex3 2] | 318 nM | 53.8 nM
AAAGGACGAGGAUAUACAUGAGGAUCACCCAUGUAAAAAACAUAGUAAAAGAACUUGUGUAGAAGGCGUCCAAA [Meechl Ex3 2 R2 v7] | 181 nM | 159 nM
AAAGGACGAGGAUAUACAUGAGGAUCACCCAUGUGUAAAACGUAAUAAAAGAACUUAUGUAGAAGGCGUCCAAA [Mat - Exclusion 3 - Eli mod - D96] | 214 nM | 64.7 nM
AAAGUGUGAGGAUAUGUGAAAGGACACGAAAGUGACAAAGAACAGAAGGUACAUGAGGAUCACCCAUGUAAAAA [milkweed 20] | 23.5 nM | 27.4 nM
AAAUAGUUAGGAUAUACAUGAGGAUCACCCAUGUGCACGUAUGGAGAAUAUGGUGGUGGUAGAAGGGACUAAAA [EX2 Malc#20] | 94.7 nM | 55.5 nM
AAAUAGUUAGGAUAUACAUGAGGAUCACCCAUGUGGACUUAUGGCGAAUAAUUUAGUGGUAGAAGGGACUAAAA [EX2 Malc#28] | 53.8 nM | 62.9 nM
AAAUGACAUGAGGAUCACCCAUGUCAGGAUAUGACUUGAAAAUAAAAUAAAAAACAUGUCAGAAGGGACAUGGG [Design 50: Sub-opt F] | 15.5 nM | 20.3 nM
AAAUGACUAGGAUAUACAUGAGGAUCACCCAUGUGUAUAAAUAAAUACACAAAAGAAAGUAGAAGGAGUCAAAG [Mat - Exclusion 3 - Mayanna mod - D123] | 60.5 nM | 20.6 nM
AAAUUGUCAGGAUAUCGUAGAACUCUAAAAUAGAGGAGCUACGAGAAGGGACAUGAGGAUCACCCAUGUAAAAC [May 88] | 68.4 nM | 56.2 nM
AACAAGUAAGGAUAUGCUGCUCGUCACAAAAGUGAUGAGUAGCAGAAGGUACAUGAGGAUCACCCAUGUAAAGA [JL eternac mod 16] | 21.1 nM | 28 nM
AACAAGUCAGGAUAUACAAAAAGUAAAUAAGUAAAACAAAAGUAGAAGGGACAUGAGGAUCACCCAUGUAAAUA [JR_Exc004_Sub018] | 26.7 nM | 46.8 nM
AACAAGUGAGGAUAUCUGGAUAGGAAAAAGAAAACCUAUCCAGAGAAGGCACAUGAGGAUCACCCAUGUAAAAA [JL cataway mod 6] | 34.6 nM | 32.7 nM
AACAGGUCAGGAUAUGUGCAACAGAAAAGAGCAGAAUAAGCACAGAAGGGACAUGAGGAUCACCCAUGUUAACA [May 27] | 32.2 nM | 24.6 nM
AACAGUACAGGAUAUACAUGAGGAUCACCCAUGUAGAGAAAAUAAAACAAAAAUAAAAGUAGAAGGGUACUGGA [Ruby 47] | 26.4 nM | 26.6 nM
AACAGUACAGGAUAUACAUGAGGAUCACCCAUGUAGAGAGAAUAAAACAAAAAUAAAUGUAGAAGGGUACUGGA [Moding Maslow revisited (73) 23] | 26.1 nM | 25.6 nM
AACAGUACAGGAUAUACAUGAGGAUCACCCAUGUCACACAAAUAAAACAAAAAUAAAAGUAGAAGGGUACUGGA [Ruby 40] | 25.9 nM | 24.9 nM
AACAGUACAGGAUAUACAUGAGGAUCACCCAUGUGAAAAUUAAGUGGAGAACCACAAAGUAGAAGGGUACUGAA [Mat - Exclusion 3 - Eli mod - D57] | 179 nM | 27.6 nM
AACAGUACAGGAUAUACAUGAGGAUCACCCAUGUGAGAAUUAAAAGGCGUACCUAAAAGUAGAAGGGUACUGGA [JL Maslow Revisted mod 18] | 73.2 nM | 28.3 nM

Sequence | apparent KD of MS2 coat protein [1] | apparent KD of MS2 coat protein [2]
AACAGUACAGGAUAUACAUGAGGAUCACCCAUGUGAGAAUUAAGUGGCGAACCACAAAGUAGAAGGGUACUGAA [Mat - Exclusion 3 - JL mod - D7] | 181 nM | 45.3 nM
AACAGUACAGGAUAUACAUGAGGAUCACCCAUGUGGAAAUUAAGUGGCGUACCACAAAGUAGAAGGGUACUGGA [Moding Maslow revisited (73)] | 100 nM | 29.5 nM
AACAUGUAAGGAUAUCCAAGAAAAGAAAAGAAAGAAAAGAAGGAGAAGGUACAUGAGGAUCACCCAUGUAAGAA [EteRNA is fun!] | 18.9 nM | 21.6 nM
AACAUGUCAGGAUAUGCAACAGGAGACUGACACGCGAGUGAGCAGAAGGGACAUGAGGAUCACCCAUGUUCAAA [Meechl Ex4 3] | 17.1 nM | 21.1 nM
AACAUGUCAGGAUAUGUGUAAAGAAUAAAAGAAAUAACAACACAGAAGGGACAUGAGGAUCACCCAUGUCAACA [May 32] | 29.3 nM | 26.1 nM
AACAUGUGAGGAUAUUAAAGAAAAGAAAAGAAAGAAAAGAAUAAGAAGGCACAUGAGGAUCACCCAUGUAAGAA [EteRNA is fun!] | 26.9 nM | 32.5 nM
AACUAGUGAGGAUAUACAAGAAUAUAAACAAAAAUGAAGGGACAUGAGGAUCACCCAUGUAGAAGGCACUAACA [Diamond 71] | 106 nM | 34 nM
AACUGACAUGAGGAUCACCCAUGUCAGGAUAUGACUUCGAAAAAAAAAAAAAACGAUGUCAGAAGGGACAUGGG [Design 69: Sub-opt OB] | 22.3 nM | 17.6 nM
AACUGACAUGAGGAUCACCCAUGUCAGGAUAUGACUUGAAAAAAAAAAAAAAAACAUGUCAGAAGGGACAUGGG [Design 55 :P Sub-opt HB] | 17.9 nM | 26.8 nM
AACUGACAUGAGGAUCACCCAUGUCAGGAUAUGCAUCUUAGGAAAAAAAAACUAAGAUGCAGAAGGGACAAGGG [Amethyst 48] | 33.1 nM | 22.7 nM
AACUGACAUGAGGAUCACCCAUGUCAGGAUAUGCUUCAUAAAAAAAAAAAAAAAUGAUGCAGAAGGGAUAUGGG [Design 33 :P Sub-opt 9] | 34.3 nM | 18 nM
AAGAAACAUGAGGAUCACCCAUGUCAGGAUAUCCAAAAGAAAAGAAAAGAAAGAAGAAGGAGAAGGGACAAAGG [Neferkamin Anu] | 40.6 nM | 31 nM
AAGAAACAUGAGGAUCACCCAUGUGAGGAUAUAGAAGAAAGAAAGAAAGAAAGAAGAACUAGAAGGCACAAAGG [Aemilius Rectus] | 35.3 nM | 33.1 nM
AAGAAACAUGAGGAUCACCCAUGUGAGGAUAUCCAAAAGAAAAGAAAAGAAAGAAGAAGGAGAAGGCACAAAGG [Nikare] | 159 nM | 88.5 nM
AAGAAACAUGAGGAUCACCCAUGUGAGGAUAUGAAAAAGAAAAGAAAAGAAAGAAGAAUCAGAAGGCACAAAGG [Nebkaure Khety II] | 1850 nM | 22.1 nM
AAGAAACAUGAGGAUCACCCAUGUGAGGAUAUGUAAAAGAAAAGAAAAGAAAGAAGAAACAGAAGGCACAAAGG [Neferkare VII] | 48 nM | 43.1 nM
AAGAAACGAGGAUAUACAAGAAAGAAAGAAAAGAAAAGAAAACAUGAGGAUCACCCAUGUAGAAGGCGUUAGAA [EteRNA is fun!] | 13.8 nM | 22 nM
AAGAACACAGGAUAUACAUGAAAGAAAGAAAAGAAAAGAAAACAUGAGGAUCACCCAUGUAGAAGGGUGUAGAA [EteRNA is fun!] | 532 nM | 454 nM
AAGAACCAAGGAUAUACAUGAAAGAAAGAAAAGAAAAGAAAACAUGAGGAUCACCCAUGUAGAAGGUGGUAGAA [EteRNA is fun!] | 105 nM | 70.2 nM
AAGAACUGAGGAUAUACAAAAUAAAAGAAAAGAAAGAAAGAACAUGAGGAUCACCCAUGUAGAAGGCGGAAGAA [Wahibre Ibiau] | 29.1 nM | 29.4 nM

— the supplement of paper PMC9170038
